Assay results taken from patent publication EP4559472A1 (Universität Ulm, dated 2025).

Target: T1, Biotinylated C4d (UniProt P0C0L4 957-1336, limits assumed, biotinylated (thioester moiety; NHS-PEG4-Biotin Kit))
T1 construct: domain: C4d; also called C4d (biotinylated, on streptavidin sensor chip)
T1 sequence (looked up): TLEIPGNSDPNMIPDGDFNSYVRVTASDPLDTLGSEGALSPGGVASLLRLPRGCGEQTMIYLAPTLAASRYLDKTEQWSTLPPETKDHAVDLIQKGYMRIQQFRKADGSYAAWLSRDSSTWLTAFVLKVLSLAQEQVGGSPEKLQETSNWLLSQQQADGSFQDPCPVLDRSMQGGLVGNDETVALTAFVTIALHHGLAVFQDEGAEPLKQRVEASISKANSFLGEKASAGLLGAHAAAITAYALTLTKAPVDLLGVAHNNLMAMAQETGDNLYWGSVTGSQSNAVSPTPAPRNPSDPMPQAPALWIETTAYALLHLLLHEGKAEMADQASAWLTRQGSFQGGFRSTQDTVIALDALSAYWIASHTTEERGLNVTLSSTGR
Assay: SPR, biotinylated C4d on streptavidin chip

B1: FH(15-18) (other, human, UniProt P08603 868-1104, looked up)
chain: IPCSQPPQIEHGTINSSRSSQESYAHGTKLSYTCEGGFRISEENETTCYMGKWSSPPQCEGLPCKSPPEISHGVVAHMSDSYQYGEEVTYKCFEGFGIDGPAIAKCLGEKWSHPPSCIKTDCLSLPSFENAIPMGEKKDVYKAGEQVTYTCATYYKMDGASNVTCINSRWTGRPTCRDTSCVNPPTVQNAYIVSRQMSKYPSGERVRYQCRSPYEMFGDEEVMCLNGNWTEPPQCKD
notes: domain: protein domains 15-18; Control protein; also called protein domains 15-18 of FH
B1: no binding.
